Experimental data from patent US20260042815A1, “UNIVERSAL T CELLS AND COMPOSITIONS AND METHODS OF USE THEREOF” (The Trustees of the University of Pennsylvania, priority 2022, published 2026).

Test system: stress ligands (MICA, MICB, ULBP 1-6) on K562 target cells
Experiment: Stress ligand blocking on K562 target cells with soluble NKG2D protein
Assay type: cell-based, human
Conditions: parental K562 and K878 targets, NK cells from two donors
From the text: Soluble NKG2D protein was employed to block stress ligands (MICA, MICB, ULBP 1-6) on K562 target cells, which interfered with NKG2D mediated recognition of target cells.

B1: NKG2D protein: Soluble NKG2D protein employed to block stress ligands (MICA, MICB, ULBP 1-6) on K562 target cells (protein, UniProt P26718 73-216, looked up)
extracellular domain: IWSAVFLNSLFNQEVQIPLTESYCGPCPKNWICYKNNCYQFFDESKNWYESQASCMSQNASLLKVYSKEDQDLLKLVKSYHWMGLVHIPTNGSWQWEDGSILSPNLLTIIEMQKGDCALYASSFKGYIENCSTPNTYICMQRTV
modifications: extracellular domain
  Effect on target cell recognition by NK cells: minimal efficacy
